{"source": "paper PMC12484979", "about": "(Nature Communications, 2025)", "molecules": {"B1": {"name": "CD20 (natural protein)", "chain": "TQSFFMRESKTLGAVQIMNGLFHIALGGLLMIPAGIYAPICVTVWYPLWGGIMYIISGSLLAATEKNSRKCLVKGKMIMNSLSLFAAISGMILSIMDILNIKISHFLKMESLNFIRAHTPYINIYNCEPANPSEKNSPSTQYCYSIQSLFLGILSVMLIFAFFQELVIAGIVENEWKRTCSRPKSNIVLLSAEEKKEQTIEIKEEVVGLTETSSQPKNEEDIEIIPIQEEEEEETETNFPEPPQDQESSPIENDSSP"}}, "assay_in_all_cases": "cryo-EM structure", "key": {"[1]": {"molecular_target": "CD20 (UniProt P11836)"}, "[2]": {"molecular_target": "human β-tryptase, tetrameric (activated by enterokinase cleavage) (human) (UniProt Q15661)"}, "[3]": {"molecular_target": "the molecule itself"}}}
{"molecule": "Rituximab Fab, wild type (human-mouse chimeric)", "values": [{"measurement": "stoichiometry N (Fab per CD20 dimer)", "setting": "[1]", "value": 2}]}
{"molecule": "human β-tryptase, tetrameric (activated by enterokinase cleavage) (from UniProt Q15661 31-275) (enzyme)", "values": [{"measurement": "stoichiometry N", "setting": "[2]", "value": 4}]}
{"molecule": "B1", "values": [{"measurement": "stoichiometry N", "setting": "[3]", "value": 2}]}
